Assay: label from the status in PepcDB records

Sequence	protein production
MTTKDISRPVCILGLGLIGGSLLRDLHAANHSVFGYNRSRSGAKSAVDEGFDVSADLEATLQRAAAEDALIVLAVPMTAIDSLLDAVHTHAPNNGFTDVVSVKTAVYDAVKARNMQHRYVGSHPMAGTANSGWSASMDGLFKRAVWVVTFDQLFDGTDINSTWISIWKDVVQMALAVGAEVVPSRVGPHDAAAARVSHLTHILAETLAIVGDNGGALSLSLAAGSYRDSTRVAGTDPGLVRAMCESNAGPLVKALDEALAILHEAREGLTAEQPNIEQLADNGYRSRIRYEARSGQRRAKESVSPTITSSRPVLRLHPGTPNWEKQLIHAETLGARIEVF	not failed
MTTKFVVGYDGSAASRRALDFAMERAKAGGASIIVAHVLEWSPYSFLTPTEIEERHKRRAEEMARAETAILAPLKAELAGSGVEIETAIRYGQVADTLCDIATKSGAAQIFIARQGESGLAARVFGSVAGTLAQYAPVPCTIVP	failed
MTTKNMNTPPGSTQENEIDLLRLVGELWDHRKFIISVTALFTLIAVAYSLLSTPIYQADTLVQVEQKQGNAILSGLSDMIPNSSPESAPEIQLLQSRMILGKTIAELNLRDIVEQKYFPIVGRGWARLTKEKPGELAISWMHIPQLNGQDQQLTLTVGENGHYTLEGEEFTVNGMVGQRLEKDGVALTIADIKAKPGTQFVLSQRTELEAINALQETFTVSERSKESGMLELTMTGDDPQLITRILNSIANNYLQQNIARQAAQDSQSLEFLQRQLPEVRSELDQAEEKLNVYRQQRDSVDLNLEAKAVLEQIVNVDNQLNELTFREAEISQLYKKDHPTYRALLEKRQTLEQERKRLNKRVSAMPSTQQEVLRLSRDVEAGRAVYLQLLNRQQELSISKSSAIGNVRIIDPAVTQPQPVKPKKALNVVLGFILGLFISVGAVLARAMLRRGVEAPEQLEEHGISVYATIPMSEWLDKRTRLRKKNLFSNQQRHRTKNIPFLAVDNPADSAVEAVRALRTSLHFAMMETENNILMITGATPDSGKTFVSSTLAAVIAQSDQKVLFIDADLRRGYSHNLFTVSNEHGLSEYLAGKDELNKVIQHFGKGGFDVITRGQVPPNPSELLMRDRMRQLLEWANDHYDLVIVDTPPMLAVSDAAVVGRSVGTSLLVARFGLNTAKEVSLSMQRLEQAGVNIKGAILNGVIKRASTAYSYGYNYYGYSYSEKE	failed
MTTKRVNTATNKIMTLNTFLDTCFLLFISILFYLSIPIYPNKVVVVPQGSLKKVFFSLKEQGVDMNALDLLFLRLMGMPKKGYIDMGDGALRKGDFLVRLIKAKAAQKSATLIPGESRYFFTQILSETYQLETSDLNQAYESIAPRLNGEVIEDGVIWPDTYHLPLGEDAFKIMQTLIGQSMKKHEALSKQWLGYYHKEEWFEKIILASIVQKEAANVEEMPLIASVIFNRLKKGMPLQMDGALNYQEFSHAKVTKERIKTDNTPYNTYKFKGLPKNPVGSVSLEAIRAVIFPKKTDFLYFVKMPDKKHAFSATYKEHLKNINLSNNHF	failed
MTTLQLFESVNAFVWGPPLLALLVGTGIYLTIRLGLLQVVRLPLALRYVFGRDDEHHEEGDVSSFAALCTALAATIGTGNIVGVATAVAAGGPGALFWMWVAAFFGMATKYAEGLLAVKYRVTDANGQMSGGPMYYLERGLGSRMLARAFALCGILVAFFGIGTFAQVNAIKDAASLSLGIPPLATAVVLTTTVALVTLGGLRSIARVAEKVVPFMAVFYIIASCAVLVMHLDRIPDAVMVILHSAFNPQAALGGAAGMTVLTAMRAGVARGVFSNESGLGSAPIAAAAARTKSCVRQGLISMTGTFFDTIVICTMTGLVLVVTGVWNDPQLAGAAMTNAAFAAGLESSLGQYAATLGLILFAFTTILGWNYYGERCTEYLFGVRGILPYRLVFIGLVAAGAFVHLELIWVLADIVNGLMAIPNLIGLLGLSGVIIAETRAFFEADAPSVDAPCGSDADNASGACPRA	failed
MTTLVLVSHPHLADSTSQQFLKASINSDEVLWEHIESQATIDIEKEQAQLRQADRIILQFPLYWYAAPAGLKQWEDTVLTRTFVYGDHRYPLAGKELGIVVTTGMPAKAFQRGGAEQITLDAALAPLAAVANRAKMKWLPTFAIHQFAYLDEPAKLQLVVDYQRYLTQTQPDNLQNKQAWFAQHLPAMIERLPLEQQQAGQLILTAFEQQQTDLEALTDTLGLIKEQEDD	failed
MTTNIAANSGGIVFHFLGTGGAQQVPAFGCECEVCQQAQRNESKRRRACCAAITTKDRIILIDAGLPELSPYLLPYPQRHILLTHYHMDHVQGLFPLRWGYGEPIPVFGPPDEAGCDDLFKHPGILHFQKPLMAFQPFELDGIRITPVPLIHSKLTYGYLIQTPTHTLAYLTDTIGLPPETTQFLASHTLDYAIVDCSHPPQTMLPRNHNDITRALEIFTQLNPKQLYLTHISHELDRWLQTQTLLPENVHAAYDGLVLGLLEHHHHHH	failed
MTTNRETVLSMAKRKRSVVAINASGWRSNGEVMGLQIKDGVLYKDYDAAGYTGAEACVFFDDGTMKVYGNREVDADILISKGARNSFAFGIWLVKDSKPRTAQMTTWADLNVKHPRQAIGQRSDGTLVIITVDGRSLRSSGITAYDMPSLFLSEGCINAFLLDGGGSSQTAVEGKYINNISDGIERAVVDTLTISYPDDLEHHHHHH	failed
MTTPAPVPRITVLLPVYNGEQYLREALDSLLTQTYRNFSLLAVDDGSTDSSLEILRSIKDPRLSVKVNPRNRGLINTLNESLDLIQSEYVARMDADDIATPYRLEEQLAFMDAHPDVGLCGGYYERFTDTESIVVRPPTTHEDISYALIFDNVMAHNTVMFRRSVLERYRLRYDPAFAYAEDYELWVRFARYSRLANLPRVLVRYRFHPANTSSRFRHEQQIAAAKIRHIHRTNLGLEPRPGDAALHRQLFDMRFEGDLPELTAAGIWLSKLYRVGVRRCRQNPVSTFLEFNKLWYSACGRLADHGLKVFAQFLRQPFGFLGNPAYTLKLAYRCWRRIRIALEHHHHHH	failed
MTTPPLRIGLIGAGYIAAWHADALRAVPGVKLTAVCDPNMDLAEGLAAAHGARAFGDLDDLIGAGLCDGVHILTPPDLHHPLALHCLRAGLHVLVEKPVALNAAQTQEIEDAARAANRRFHAGHNFLGLPSYTRLKREIRRGALGRVSGAEIRWCYPFGPLRAGPFGIWPLRDTRNLMLEFGPHLMSLVIDLFGLPEIEHVALSKPVALPGAGTRPQGWRILARAGEVELVLILSLVETADDRSVTIRGSSARARLDLAADTLVIDAENTADLVANPLLRQLSLARQHLVQGSVNAARQLTSFNRKSPYALSFRGLANGIWEPLAQNAPADPRWSGSSAVAVMTALDAVLERVDWPAPVPASPSRKPAPSAMVIGGTGFIGRALTRELVARGSDVRVISRGRQGSFADLPDQVETVSLSLRDTEGLARAMAGIDTVYNLARSTDSSWEDCLQNDVAVAEGIGKAALAAGVRRLVYTGTIASFDMSDPAATITDATPLPDEMDERNLYARSKAECERRLMALHRQSALPLVIARPGIVLGAGGPLQHWGIGRWHGAGAVRLWGNGRNPLPFVLIGDCVDGLIRCAEAEGIEGRAFNLVGPPILSARDYFDAIHDRLGARIRVSGGNLSLMYAADWVKFQLKTRVLGRSGLTRPSRADWLSRAHQSRFDISGARSALGWHPVSDADAFLTNAVDEAGLLGF	failed
MTTPRPEYPRPHFDRSHSWLTLNGTWDFRADPAEAYSADASDGYDRAITVPFAWETPASGIAEHWLRTAWYRRTFTVPADWAGQRVVLHFGAVHHAATVWVNGTEVAHHEGGYTPFAADVTDALGDGEHQLTVRVHAPADKRDIAHGKQRSMPRDDYDGVCFTPSSGIWQSVWLEARPATHLAALRLRPNDDLTGITVEAVVHGPAADRAELRLRVRDEDTAVTATLDPDGRLATELPLSAPRLWSPEDPHLYHVDAELTSADGTDRVAAYTGLRTVTVDGESLYLNGRRLFVRGVLDQGYWPETGITAPDDAALRRDIELAAEAGYNLVRKHLKLEDPRFAHHADTLGMLLWAEPASPGRFSPASTAAFAEQIEPMVERDGNSPAIVIWGLYNEEWGLDWDIPGDPAKQRATADAYDRLKALDPTRPVVDNSGWTHVKTDLLDWHYYDESAASWATTVADLLSGERDDFPVKLGPDFVVRKKLAVPGQPLRGLPNLNSEYGGGFTGLDRAWHLRWQTQELRRHDRLAGYVYTELYDIEHESAGLLDFGRGAKDLAGVDPAHANAPTTLVLDVTPVAPGRDLLTTGPDFTVDVHVSHHGDDPVAGTVHTTWTPVYARTPDAPGDAVPGCRAEAKPYVLGAAVTVPAALPDGWTSGRLHLALVVDGTVAARTALDVDTRTDPYIGDDPQARPTA	failed
MTTPRRALIVIDVQNEYVTGDLPIEYPDVQSSLANIARAMDAARAAGVPVVIVQNFAPAGSPLFARGSNGAELHPVVSERARDHYVEKSLPSAFTGTDLAGWLAARQIDTLTVTGYMTHNCDASTINHAVHSGLAVEFLHDATGSVPYENSAGFASAEEIHRVFSVVLQSRFAAVASTDEWIAAVQGGTPLARGNIYASNQKARARRATA	not failed
MTTPSHLSDRYELGEILGFGGMSEVHLARDLRLHRDVAVKVLRADLARDPSFYLRFRREAQNAAALNHPAIVAVYDTGEAETPAGPLPYIVMEYVDGVTLRDIVHTEGPMTPKRAIEVIADACQALNFSHQNGIIHRDVKPANIMISATNAVKVMDFGIARAIADSGNSVTQTAAVIGTAQYLSPEQARGDSVDARSDVYSLGCVLYEVLTGEPPFTGDSPVSVAYQHVREDPIPPSARHEGLSADLDAVVLKALAKNPENRYQTAAEMRADLVRVHNGEPPEAPKVLTDAERTSLLSSAAGNLSGPRTDPLPRQDLDDTDRDRSIGSVGRWVAVVAVLAVLTVVVTIAINTFGGITRDVQVPDVRGQSSADAIATLQNRGFKIRTLQKPDSTIPPDHVIGTDPAANTSVSAGDEITVNVSTGPEQREIPDVSTLTYAEAVKKLTAAGFGRFKQANSPSTPELVGKVIGTNPPANQTSAITNVVIIIVGSGPATKDIPDVAGQTVDVAQKNLNVYGFTKFSQASVDSPRPAGEVTGTNPPAGTTVPVDSVIELQVSKGNQFVMPDLSGMFWVDAEPRLRALGWTGMLDKGADVDAGGSQHNRVVYQNPPAGTGVNRDGIITLRFGQ	failed
MTTSGERRVAGLAMIGSAACWGSATVMSRDLLVSMTSIQLLLVQLMASVCVLLALAAPRFPWTYRSREMTKGALCGVLEPGLAYVVGLAGLAQTTAGRASIISASEPVLIVLVAWVLFNQRPGLRLMAAIAIAVGGLVLVSWSPVVEDRGGAFRGDMMVVLATLFAAGYVVISSRIVGSFPAASLASGQQMVGLAFAMLVYAGAMAHGDDMGGFGAIPGGTLAYAALSGVVQYALAFWLYLIGLRYLSAGAAGLWLTLIPVFGLAGAWLWLGERPGLLTVLGAIVIVSAVVLGNRGGTE	failed
MTTSIQRRISIVIPCLNDAVLLEQCLSSIVAQTLQPEEVIVVDNGSTDNSVEVANRMGARVVHEPLQGITWASAAGYNSARGDLIVRFDADCVIPPDHLSQVNAIWNRTEETPGRTIVALTGTGSFDIPGRMGEWLALCYLGAYRWSTKQALGHYPIFGSNSVISRQWWEDVKDQITLSETFVHEDMYFSFFVRPHETVWFEKNLKLIMHPRALMGVRQSFIRLVRGFYTIKIAWKREPVHQRLESRRDWTLEHHHHHH	failed
MTTTASQEAFLQAFHAEYPAVTAEAFGRGHAPDGRSSYEILCDRVAGSMRVLDLGCGDGLLLEFLARRSGRQLAGVDLSPHSLALARRRPALSEAKLEEGRAQELPFADDSFDACVSHMALMLMSEIEQVASEVARVLSPGGVLACVVGGGAVGGEAYERFLALLRCTIEETPASQRIPALGDKRTRSREGLDEVLGPAGFTAVDWETVPIDLSAPGEQVWAAVSSLYDLGPLDRATLDRLREAFFAEVRDMTTSEGHVPCAFKIHLATARLR	failed

Reference: a protein production outcome set (Wang et al. 2014)
